Results as given in US20240318159.

Test system: mND1 TALE_L-BE_41-N(G108) + TALE_R-BE_41-C(G43) split base editor (synthetic)
Assay: cell_activity
Settings: m.2820G>A allele in mouse cells

**Q.** Which activity does the source give for “CATTAGTAGAACGCA (double strand) [mND1 G2820 target]” here?
**A.** 56.4%
